Series [1] concerns the target T1, Cdx2 (Mus musculus, UniProt P43241 P43241:1-311).
T1 sequence: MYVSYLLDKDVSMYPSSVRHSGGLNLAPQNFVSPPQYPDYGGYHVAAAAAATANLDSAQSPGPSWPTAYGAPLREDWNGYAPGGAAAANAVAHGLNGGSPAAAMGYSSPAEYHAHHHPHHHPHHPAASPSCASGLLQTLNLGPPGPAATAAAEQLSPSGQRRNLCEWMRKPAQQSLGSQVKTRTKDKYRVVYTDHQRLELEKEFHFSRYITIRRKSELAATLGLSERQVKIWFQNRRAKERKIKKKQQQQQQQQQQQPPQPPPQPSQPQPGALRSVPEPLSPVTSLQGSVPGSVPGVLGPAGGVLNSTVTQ
In words: EMSA; supershifted by anti-Cdx2, 10 mM Tris pH 7.5, 50 mM NaCl, 2.5 mM MgCl2, room temp. The conditions noted are these: tags: pRc/CMV-Cdx2, TNT Quick-coupled (Promega); label: 32P 5'-end. The protocol: (§1) Electromobility Shift Assay (EMSA). Protein-DNA binding reactions performed in the same buffer as the DNase I protection assay (4% glycerol, 10 mM Tris-HCl (pH 7.5) 50 mM NaCl, 2.5 mM MgCl₂ and 5 mM DTT) included […] of Poly(dI.dC)-Poly(dI.dC) (Amersham Pharmacia Biotech, Piscataway, N.J.) and 30 kcpm of probe. Reactions were initiated by the addition of nuclear extract and incubated for 30 min at room temp to produce protein complexes which were separated on a 6% non-denaturing, polyacrylamide (37.5:1) gel in 0.5× TBE running buffer. Gels were dried prior to visualization of radiolabelled complexes by autoradiography. In competition assays, unlabelled competitor was added to the reaction mixtures at concentrations ranging from 25-fold to 250-fold molar excess of the labeled probe prior to the addition of the nuclear extract. Supershift assays were performed by adding […] of murine Cdx2 antibody after an initial incubation period of 30 min; incubation was then continued for an additional 30 min. Transcribed and translated murine Cdx2 protein was generated in vitro using linearized pRc/CMV-Cdx2 expression vector as a template for the TNT-Quickcoupled Kit (Promega).
(§2) Cdx2 binds specifically to the FP1 probe. To determine whether FP1 is a binding site for Cdx2, labeled FP1 was incubated with in vitro transcribed and translated murine Cdx2. […]
Background: A gel shift assay detects complexes by their altered migration in electrophoresis.

The target of series [2] is T1, Cdx2. The series is described as follows: EMSA; no specific complex formed. The conditions noted are these: tags: pRc/CMV-Cdx2, TNT Quick-coupled (Promega); label: 32P 5'-end. The protocol: as §1, §2

Residue numbers refer to the chain shown, from its start.

B1: FP1 (dsDNA)
DNA 1: CAGCTAATCTCTCTGTTTATAGCTCTGACCTTTC
DNA 2: GAAAGGTCAGAGCTATAAACAGAGAGATTAGCTG
As for B1, the binding result with Cdx2 [1] is “binds”.

B2: FP1-CCC (dsDNA)
DNA 1: B1 DNA 1 with T16C, T17C, T18C
DNA 2: B1 DNA 2 with A17G, A18G, A19G
On to B2, for which the binding result in the series with Cdx2 [2] is “no binding”.

These data come from patent US20010039016, “Use of expression profiling for identifying molecular markers useful for diagnosis of metastatic cancer” (published 2001).
